Data published in publication PMC9364786 (Journal of Virology, 2022).

Target: SARS-CoV-2 subdomain 1 (SBD) protein, D614G (SARS-CoV-2, UniProt P0DTC2)
Test: ELISA
Conditions: both partners purified

B1: MAb 084-7D (antibody, V domains shown)
VH: EVQLLESGGGLVQPGGSLRLSCAASGFSFSSYAMNWVRQAPGKGLEWVSAISGGGDNIYYADSVKGRFTISRDNYKNTLHLQMKSLRAEDTAVYYCAKDHPSWGSSFLNWGQGILVIVSS
VL: DIQMTQSPSTLSASVGDRVTITCRASQSISSWLAWYQQKPGRAPKLLIYTASNLESGVPSRFSGSGSGTEFSLTISSLQPDDFATYYCQQYNSYSLTFGGGTRVEIK
notes: also called 084-7D MAb
B1: no binding (tested: 5 μg/mL starting concentration).
